Here are results for 4 molecules from patent publication US20240116985A1 (published 2024).

Experiment [1] concerns the target T1, B-cat-Halo (UniProt P35222 1-781).
T1 construct: Expressed by transfection in HEK293 cells for the NanoBRET assay; also called beta-catenin HaloTag NanoBRET construct; not shown: HaloTag
T1 sequence (looked up): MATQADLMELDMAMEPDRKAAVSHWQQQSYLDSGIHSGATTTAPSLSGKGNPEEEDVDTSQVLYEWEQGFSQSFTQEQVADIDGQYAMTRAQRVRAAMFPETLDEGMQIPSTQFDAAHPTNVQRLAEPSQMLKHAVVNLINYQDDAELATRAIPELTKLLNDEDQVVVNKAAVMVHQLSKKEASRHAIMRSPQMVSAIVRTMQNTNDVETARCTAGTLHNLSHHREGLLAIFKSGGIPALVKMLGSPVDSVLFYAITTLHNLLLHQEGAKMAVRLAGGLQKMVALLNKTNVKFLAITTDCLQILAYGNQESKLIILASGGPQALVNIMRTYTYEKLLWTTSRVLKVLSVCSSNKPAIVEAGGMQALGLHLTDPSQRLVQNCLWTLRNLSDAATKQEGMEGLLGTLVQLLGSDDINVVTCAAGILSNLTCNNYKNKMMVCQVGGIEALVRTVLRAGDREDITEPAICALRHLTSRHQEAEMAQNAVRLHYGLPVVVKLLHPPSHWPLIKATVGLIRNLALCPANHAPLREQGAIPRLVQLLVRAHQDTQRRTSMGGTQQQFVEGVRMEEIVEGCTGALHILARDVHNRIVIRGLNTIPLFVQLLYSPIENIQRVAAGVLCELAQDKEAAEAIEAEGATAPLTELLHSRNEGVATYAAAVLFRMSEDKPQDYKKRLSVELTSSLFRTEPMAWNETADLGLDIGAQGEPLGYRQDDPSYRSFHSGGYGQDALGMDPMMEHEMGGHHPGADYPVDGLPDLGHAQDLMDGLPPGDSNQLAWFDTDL
The experiment can be described thus: NanoBRET Abs IC50 in HEK293 cells; Bcat-Halo, TCF4-Luc as competitor. For orientation: Bioluminescence resonance energy transfer reports proximity on the nanometre scale.

The target in experiment [2] is T2, full-length beta-Catenin (Uniprot ID P35222) (Homo sapiens (Human), UniProt P35222 1-781).
T2 construct: also called bCat; B-Catenin
T2 sequence: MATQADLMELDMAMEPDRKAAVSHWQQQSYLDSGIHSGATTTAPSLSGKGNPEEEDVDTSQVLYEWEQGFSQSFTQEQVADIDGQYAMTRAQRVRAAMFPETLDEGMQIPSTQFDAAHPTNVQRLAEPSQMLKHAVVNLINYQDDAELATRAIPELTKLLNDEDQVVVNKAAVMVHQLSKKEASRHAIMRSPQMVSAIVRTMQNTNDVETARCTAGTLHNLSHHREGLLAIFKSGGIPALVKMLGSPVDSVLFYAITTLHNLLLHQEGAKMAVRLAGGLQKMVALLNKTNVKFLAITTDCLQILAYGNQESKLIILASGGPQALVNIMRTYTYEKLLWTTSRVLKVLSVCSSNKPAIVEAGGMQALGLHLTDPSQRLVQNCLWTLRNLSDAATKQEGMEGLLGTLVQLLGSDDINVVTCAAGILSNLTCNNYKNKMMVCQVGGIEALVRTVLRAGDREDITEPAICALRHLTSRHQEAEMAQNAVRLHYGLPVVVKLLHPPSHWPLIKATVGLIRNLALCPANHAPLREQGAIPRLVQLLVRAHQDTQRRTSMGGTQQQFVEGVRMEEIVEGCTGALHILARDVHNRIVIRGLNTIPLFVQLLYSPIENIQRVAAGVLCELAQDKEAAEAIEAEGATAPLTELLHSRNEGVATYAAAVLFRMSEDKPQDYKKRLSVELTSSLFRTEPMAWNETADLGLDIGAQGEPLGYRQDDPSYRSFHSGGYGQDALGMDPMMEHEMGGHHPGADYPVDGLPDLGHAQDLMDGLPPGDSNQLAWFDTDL
The experiment can be described thus: competition fluorescence polarization; full-length beta-catenin, 5FAM-TCF4(10-53) probe as competitor. Here is the method: (§1) The plate was incubated protected from light for 60 minutes at 20° C. prior to read. Reads were performed on a CLARIOstar plate reader (BMG Labtech) in duplicate, and data were fitted to a 1:1 binding model with hill slope using an in-house script. All provided concentrations are final concentrations.
On the technique in general: Polarisation of emitted light reports the rotation of a fluorescent probe.

Experiment [3] has as its target T3, beta-catenin in DLD1 TCF/LEF luciferase reporter cells (UniProt P35222 1-781).
T3 sequence (looked up): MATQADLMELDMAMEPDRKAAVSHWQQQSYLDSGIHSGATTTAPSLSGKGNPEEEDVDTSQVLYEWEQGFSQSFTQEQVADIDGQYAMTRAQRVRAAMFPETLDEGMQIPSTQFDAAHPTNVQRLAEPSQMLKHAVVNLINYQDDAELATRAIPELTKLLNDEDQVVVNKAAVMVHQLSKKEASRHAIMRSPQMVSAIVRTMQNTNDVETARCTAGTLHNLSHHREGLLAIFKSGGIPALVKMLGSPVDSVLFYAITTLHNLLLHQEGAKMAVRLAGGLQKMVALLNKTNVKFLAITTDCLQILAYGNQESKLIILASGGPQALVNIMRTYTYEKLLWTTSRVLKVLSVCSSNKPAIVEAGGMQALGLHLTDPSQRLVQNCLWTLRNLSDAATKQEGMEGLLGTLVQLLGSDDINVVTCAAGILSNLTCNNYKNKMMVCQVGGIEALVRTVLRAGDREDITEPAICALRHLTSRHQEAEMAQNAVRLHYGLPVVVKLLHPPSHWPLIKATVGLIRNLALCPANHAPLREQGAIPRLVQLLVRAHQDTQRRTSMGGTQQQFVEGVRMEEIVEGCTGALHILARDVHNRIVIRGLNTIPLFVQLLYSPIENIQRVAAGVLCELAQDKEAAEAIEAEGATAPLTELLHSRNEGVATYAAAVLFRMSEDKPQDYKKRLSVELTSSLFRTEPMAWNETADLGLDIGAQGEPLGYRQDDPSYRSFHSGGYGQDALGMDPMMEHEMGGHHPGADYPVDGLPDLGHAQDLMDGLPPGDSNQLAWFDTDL
The experiment can be described thus: cell-based or functional assay.

The target in experiment [4] is T4, B-cat-Halo (UniProt P35222 1-781).
T4 sequence (looked up): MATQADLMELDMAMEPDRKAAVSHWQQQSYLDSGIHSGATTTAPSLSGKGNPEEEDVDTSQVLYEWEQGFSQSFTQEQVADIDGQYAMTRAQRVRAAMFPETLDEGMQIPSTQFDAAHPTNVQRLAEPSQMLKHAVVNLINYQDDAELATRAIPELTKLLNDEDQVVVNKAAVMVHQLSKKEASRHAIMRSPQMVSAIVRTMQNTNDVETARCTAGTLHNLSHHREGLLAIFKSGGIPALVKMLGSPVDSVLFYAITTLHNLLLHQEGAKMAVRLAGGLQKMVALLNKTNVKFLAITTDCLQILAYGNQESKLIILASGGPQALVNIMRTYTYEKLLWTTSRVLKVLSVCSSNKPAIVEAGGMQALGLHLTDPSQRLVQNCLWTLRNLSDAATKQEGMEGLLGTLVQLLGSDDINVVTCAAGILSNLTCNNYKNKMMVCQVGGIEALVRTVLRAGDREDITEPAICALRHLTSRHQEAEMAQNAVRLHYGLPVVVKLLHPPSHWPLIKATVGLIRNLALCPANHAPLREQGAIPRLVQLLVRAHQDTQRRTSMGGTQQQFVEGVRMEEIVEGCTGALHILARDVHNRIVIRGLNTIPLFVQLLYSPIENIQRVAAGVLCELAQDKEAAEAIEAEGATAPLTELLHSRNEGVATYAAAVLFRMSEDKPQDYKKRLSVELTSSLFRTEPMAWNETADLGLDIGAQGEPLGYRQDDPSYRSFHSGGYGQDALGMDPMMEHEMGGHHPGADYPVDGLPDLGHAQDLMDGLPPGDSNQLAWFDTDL
The experiment in a line: cell-based or functional assay.

The target in experiment [5] is T5, beta-catenin in DLD1 TCF/LEF luciferase reporter cells (Homo sapiens (Human), UniProt P35222 1-781).
T5 sequence: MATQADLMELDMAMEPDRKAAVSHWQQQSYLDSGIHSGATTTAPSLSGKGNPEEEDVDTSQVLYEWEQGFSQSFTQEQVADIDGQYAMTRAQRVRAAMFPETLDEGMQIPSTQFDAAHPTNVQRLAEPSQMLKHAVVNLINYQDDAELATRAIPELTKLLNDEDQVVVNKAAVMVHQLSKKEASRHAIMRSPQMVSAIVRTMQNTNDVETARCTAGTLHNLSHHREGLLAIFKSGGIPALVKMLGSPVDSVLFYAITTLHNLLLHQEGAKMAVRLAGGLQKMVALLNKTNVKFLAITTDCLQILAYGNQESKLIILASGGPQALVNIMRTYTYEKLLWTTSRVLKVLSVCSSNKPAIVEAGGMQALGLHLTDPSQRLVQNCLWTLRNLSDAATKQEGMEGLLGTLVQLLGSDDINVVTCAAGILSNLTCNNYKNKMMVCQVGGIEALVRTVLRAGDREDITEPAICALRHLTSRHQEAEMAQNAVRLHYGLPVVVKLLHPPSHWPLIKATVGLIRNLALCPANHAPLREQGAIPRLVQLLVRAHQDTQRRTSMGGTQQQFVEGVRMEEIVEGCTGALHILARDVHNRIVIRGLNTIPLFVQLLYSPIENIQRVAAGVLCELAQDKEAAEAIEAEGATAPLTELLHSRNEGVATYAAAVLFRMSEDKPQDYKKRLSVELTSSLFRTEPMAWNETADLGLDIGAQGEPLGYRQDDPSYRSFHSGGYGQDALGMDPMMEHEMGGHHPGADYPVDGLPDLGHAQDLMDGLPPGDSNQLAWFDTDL
The experiment can be described thus: cell-based or functional assay.

The target of experiment [6] is T6, full-length beta-Catenin (Uniprot ID P35222) (Homo sapiens (Human), UniProt P35222 1-781).
T6 construct: also called bCat; B-Catenin
T6 sequence: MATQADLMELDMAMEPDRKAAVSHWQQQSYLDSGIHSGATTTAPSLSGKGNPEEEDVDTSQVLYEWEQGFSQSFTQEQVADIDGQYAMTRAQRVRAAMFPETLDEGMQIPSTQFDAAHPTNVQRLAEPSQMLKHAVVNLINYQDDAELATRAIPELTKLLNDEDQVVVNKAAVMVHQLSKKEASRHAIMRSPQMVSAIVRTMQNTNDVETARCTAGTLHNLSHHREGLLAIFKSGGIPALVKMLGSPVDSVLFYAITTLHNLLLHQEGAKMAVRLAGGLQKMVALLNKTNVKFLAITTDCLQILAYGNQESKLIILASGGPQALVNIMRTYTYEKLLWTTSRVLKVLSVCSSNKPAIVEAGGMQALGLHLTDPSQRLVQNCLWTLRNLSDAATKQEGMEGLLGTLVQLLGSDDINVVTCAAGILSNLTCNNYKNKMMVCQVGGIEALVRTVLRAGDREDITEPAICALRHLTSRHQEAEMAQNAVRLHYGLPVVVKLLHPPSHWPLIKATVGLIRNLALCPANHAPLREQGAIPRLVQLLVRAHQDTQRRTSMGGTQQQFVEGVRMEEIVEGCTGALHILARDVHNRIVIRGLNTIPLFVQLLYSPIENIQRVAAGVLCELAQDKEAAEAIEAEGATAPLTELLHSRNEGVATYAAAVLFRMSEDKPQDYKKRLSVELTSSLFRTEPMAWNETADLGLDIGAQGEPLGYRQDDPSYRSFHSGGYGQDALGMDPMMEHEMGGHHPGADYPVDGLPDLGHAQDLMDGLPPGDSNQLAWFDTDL
The experiment in a line: fluorescence polarization competition; full-length beta-catenin + 5FAM-TCF4(10-53) probe. Here is the method:
as §1

Starred links: 1 amine or outer side, 2 acyl side, 3 side chain; linkers in the order of their positions; H or OH if unused. Positions of bridges follow the written chain, without caps; N, C: chain ends. Non-standard residues stand in square brackets, D forms with d. Primed or numbered codes have the meaning given here. B5(10) = 2-amino-2-(pent-4-en-1-yl)hept-6-enoic acid, bis(4-pentenyl)glycine, stitching residue bearing both staples, C=CCCCC(CCCC=C)(N[*:1])C(=O)[*:2]; PyrS2″ = (S)-3-amino-1-((pent-4-en-1-yloxy)carbonyl)pyrrolidine-3-carboxylic acid (stapling residue), C=CCCCOC(=O)N1CC[C@@](N[*:1])(C(=O)[*:2])C1; B5(18) = 2,2-bis(4-pentenyl)glycine (2-amino-2-(pent-4-en-1-yl)hept-6-enoic acid), stitching residue, C=CCCCC(CCCC=C)(N[*:1])C(=O)[*:2]; B5(4) = 2,2-bis(4-pentenyl)glycine = 2-amino-2-(pent-4-en-1-yl)hept-6-enoic acid (stitching residue), C=CCCCC(CCCC=C)(N[*:1])C(=O)[*:2]; B5(5) = 2,2-bis(4-pentenyl)glycine, 2-amino-2-(pent-4-en-1-yl)hept-6-enoic acid (stitching residue), C=CCCCC(CCCC=C)(N[*:1])C(=O)[*:2]; TfeGA = (S)-2-amino-3-((carboxymethyl)(2,2,2-trifluoroethyl)amino)propanoic acid, O=C([C@H](CN(CC(=O)[*:3])CC(F)(F)F)N[*:1])[*:2]; PyrS2 = (S)-3-amino-1-((pent-4-en-1-yloxy)carbonyl)pyrrolidine-3-carboxylic acid, C=CCCCOC(=O)N1CC[C@@](N[*:1])(C(=O)[*:2])C1; Phe(2-Cl) = N[C@@H](Cc1ccccc1Cl)C(=O)O; Bta = N[C@@H](Cc1csc2ccccc12)C(=O)O; αAllylPro = C=CC[C@@]1(C(=O)O)CCCN1; tBuAla = CC(C)(C)C[C@H](N)C(=O)O; S8 = C=CCCCCCC[C@](C)(N)C(=O)O

B1: I-564 (peptide)
peptide: Ac-[αAllylPro]DL[B5(5)]DDAAFN[S8]F[Bta]H-NH2
modifications: staple 1-4, 4-11
notes: Stapled peptide composition; also called Ac-PL3-Asp-Leu-B5-Asp-Asp-Ala-Ala-Phe-Asn-S8-Phe-BztA-His-NH2
Turning to B1, the IC50 (as a rule, the concentration at which inhibition is half-maximal) was more than 20 µM in experiment [1] and 0.036 µM in experiment [2].

B2: I-1008 (peptide)
peptide: Ac-[αAllylPro]D[tBuAla][B5(18)]D[TfeGA]FAFN[PyrS2″][Phe(2-Cl)][Bta]Q-NH2
modifications: staple 1-4, 4-11
Regarding B2, the “DLD1 4% Abs IC50” value in experiment [3] was 4.7 µM. For the same molecule, in experiment [4], the “NanoBRET Abs IC50” value came to 14 µM.

B3: I-1244 (peptide)
peptide: Ac-[αAllylPro]D[tBuAla][B5(4)]DDAAFT[PyrS2″][Phe(2-Cl)][Bta]S-NHEt
modifications: staple 1-4, 4-11
With B3, the “DLD1 4% Abs IC50” value in experiment [5] came out at 15.9 µM.

B4: I-1295 (peptide)
peptide: Ac-[αAllylPro]DA[B5(10)]NTAAFL[PyrS2]F[Bta]Q-NH2
modifications: staple 1-4, 4-11; not fully specified; printed as Ac-PL3-Asp-Ala-B5-Asn-Thr-Ala-Ala-Phe-Leu-PyrS2-Phe-BztA-Gln-NH2
Turning to B4, the EC50 – broadly, the midpoint of the concentration-response curve – in experiment [6] is 10 µM.
